From publication doi:10.1101/2020.12.04.20244186

Target: c-KIT extracellular domain (soluble KIT) (UniProt P10721-2 26-516)
Experiment: square wave voltammetry

B1: Fc-labeled scrambled control oligo (Au/Fc-control) (ssDNA)
DNA: TGACGGGAGACTTAAAACGCAAGGGGTGCAGCTATCGCGGAGGCCAAGGGTTCAAGTCGACGGGTAGCTAGGTTGGA
modifications: 5'-disulfide (thiol after TCEP, on gold electrode); 3'-NH2 coupled to ferrocene carboxylic acid
  binding result: no binding
